Data from patent US7998940B2, “Aptamers to von Willebrand factor and their use as thrombotic disease therapeutics” (Archemix Corp., priority 2004, dated 2011).
Like-named read-outs stand apart in the source and are kept apart here. Oligonucleotides are written 5' to 3', each unit as a sugar letter and its base; * is a phosphorothioate linkage, no mark a phosphodiester; rarer units and linkages stand in square brackets, end groups in braces. Plain capitals give the bases only. d = 2'-deoxy (DNA); r = 2'-OH (RNA); f = 2'-fluoro

B1: AMX.236.G1 (nucleic acid)
chain: CTACCTACGATCTGACTAGCCTCAGATTGACTCCGGCTGACTTGTTTTAATCTTCTGAGTGCTTACTCTCATGTAGTTCC
modifications: DNA, backbone and methylation of C not given here
B2: AMX199.D8: DNA SELEX 1 aptamer clone (nucleic acid)
DNA: CTACCTACGATCTGACTAGCAAGGGGATTGGCTCCGGGTCTGGCGTGCTTGGCATCTTCGGCTTACTCTCATGTAGTTCC
modifications: DNA, backbone not given here
notes: DNA SELEX 1 aptamer clone
B3: AMX200.E10: DNA SELEX 1 aptamer clone (nucleic acid)
DNA: CTACCTACGATCTGACTAGCAAGGGGATTGGCTCCGGGTCTGGCGTGCTCGGCACCTTTGGCTTACTCTCATGTAGTTCC
modifications: DNA, backbone not given here
notes: DNA SELEX 1 aptamer clone
B4: AMX202.F6: DNA SELEX 1 aptamer clone (nucleic acid)
DNA: CTACCTACGATCTGACTAGCAAGGGGATTGGCTCCGGGTCTGGCGTGCTCGGCACCTTCGGCTTACTCTCATGTAGTTCC
modifications: DNA, backbone not given here
notes: DNA SELEX 1 aptamer clone
B5: AMX202.A8: DNA SELEX 1 aptamer clone (nucleic acid)
DNA: CTACCTACGATCTGACTAGCAAGGGGATTGGCTCCGGGTCTGGCGTGCTCGGCACTTCCGGCTTACTCTCATGTAGTTCC
modifications: DNA, backbone not given here
notes: DNA SELEX 1 aptamer clone
B6: AMX202.H10: DNA SELEX 1 aptamer clone (nucleic acid)
chain: CTACCTACGATCTGACTAGCGGAATGAGAAGGCTGGTGGATTGCTCAGGTCTGCTGGCTGCTTACTCTCATGTAGTTCC
modifications: DNA, backbone and methylation of C not given here
notes: DNA SELEX 1 aptamer clone
B7: AMX202.B8: DNA SELEX 1 aptamer clone (nucleic acid)
DNA: CTACCTACGATCTGACTAGCGGAATGAGTATGCTGATGGATTGCTCAGGTCTGCTGGCTGCTTACTCTCATGTAGTTCC
modifications: DNA, backbone not given here
notes: DNA SELEX 1 aptamer clone
B8: AMX202.A3: DNA SELEX 1 aptamer clone (nucleic acid)
DNA: CTACCTACGATCTGACTAGCGGAATGAGAGCGCTGATGGATTGCTCAGGTCTGCTGGCTGCTTACTCTCATGTAGTTCC
modifications: DNA, backbone not given here
notes: DNA SELEX 1 aptamer clone
B9: AMX202.D6: DNA SELEX 1 aptamer clone (nucleic acid)
DNA: CTACCTACGATCTGACTAGCGGAATGAGAAGGCTGATGGATTGCTCAGGTCTGCTGGCTGCTTACTCTCATGTAGTTCC
modifications: DNA, backbone not given here
notes: DNA SELEX 1 aptamer clone

Tests used:
[1] = test system: full length human vWF binding to lyophilized platelets; experiment: Full length human von Willebrand Factor platelet binding assay (FACS); assay type: cell-based; settings: 5 nM full length human vWF, lyophilized platelets, botrocetin; for Inhibition of full length hVWF binding in FACS assay, IC50 range: both bounds in nM
Description: The amount of vWF bound to fixed platelets can be measured with an antibody to vWF. The fluorescence signal from bound antibody incubated with a fluorescein conjugated secondary antibody is then detected and quantified by flow cytometry. The ability of an aptamer of the invention to block vWF binding to platelets is correlated with a reduction in fluorescence signal.
Aptamer potency to block human vWF binding to lyophilized platelets was assessed by flow cytometric analysis. Titrations of aptamers (0 nM, 0.1 nM to 1000 nM) were pre-incubated briefly with 5 nM of full length human vWF in FACS buffer (PBS plus 0.5% bovine serum albumin) at room temperature in a volume of 50 uL. Another 50 uL containing 5 uL of lyophilized platelets plus 1 uL of 0.1 U/uL of botrocetin in FACS buffer was added to aptamer/vWF. This reaction was allowed to proceed for 15 minutes at 37 degrees C. after which 200 uL of FACS buffer was added. Platelets were collected by a 6 minute spin at 1470 RCF and the supernatant was discarded. The pellets were resuspended in 100 uL of FACS buffer containing a 1:100 dilution of anti-vWF antibody and were incubated at room temperature for 30 minutes. After dilution with 200 uL of FACS buffer, the platelets were spun at 1470 RCF for 6 minutes and the supernatant was discarded. The pellets were resuspended in a 1:100 solution of anti-IgG2a-FITC antibody and were incubated in the dark for 30 minutes at room temperature. The entire 100 uL was diluted into 200 uL of FACS buffer and analyzed immediately by flow cytometric analysis in the FACSCAN. Artifactual data from contaminating debris was eliminated from the analysis by drawing a gate around the population of single and aggregated platelets. Mean fluorescent intensity (“MFI”) readings were quantified for each sample analyzed by flow cytometry. Background MFI was subtracted from all data points. Percent inhibition was reported by calculating the percent value of binding of full length human vWF to platelets in the presence of aptamer at a given concentration relative to binding in the absence of any aptamer (see FIG. 7). IC50 values were determined by fitting the percent inhibition of vWF binding to platelets as a function of aptamer concentration to the equation: % inhibition=% inhibitionmax/(1+IC50/aptamer conc.)

[2] = test system: full length human vWF (SEQ ID NO 7); experiment: dot blot KD determination and extent of binding, full length human vWF; settings: rRdY minimers; 8 point titration 0-300 nM; read-out: Full length human vWF KD;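 note: dot blot binding of aptamers to full length human vWF across a protein titration, incubated 30 minutes at room temperature in 1x DPBS with BSA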
[3] = test system: rabbit vWF A1 domain (SEQ ID NO 6); experiment: 3-point dot blot screen, rabbit vWF A1 domain; assay type: binding; settings: DNA SELEX 1 aptamers; 100 nM rabbit vWF A1 domain; ratio of fraction bound with target to without
Sequence of rabbit vWF A1 domain (SEQ ID NO 6) (as listed by the source): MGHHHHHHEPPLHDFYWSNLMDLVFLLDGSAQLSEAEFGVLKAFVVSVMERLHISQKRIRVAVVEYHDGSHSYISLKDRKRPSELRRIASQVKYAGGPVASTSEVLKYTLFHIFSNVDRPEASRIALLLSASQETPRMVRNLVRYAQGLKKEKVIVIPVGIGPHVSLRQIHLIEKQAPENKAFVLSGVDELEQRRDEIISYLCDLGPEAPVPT
Description: (§1) When a significant positive ratio of binding of RNA in the presence of human or rabbit vWF A1 domain versus in the absence of protein was seen, the pools were cloned using the TOPO TA cloning kit (Invitrogen, Cat. #45-0641, Carlsbad, Calif.) according to the manufacturer's instructions. Round 9 and 12 pool templates were cloned and sequenced (125 total sequences), producing 48 unique clones. All unique clones were transcribed, desalted, 5-^32P end-labeled, and assayed in a 3-point dot blot screen (no protein target control, 100 nM human vWF A1 domain (SEQ ID NO 5, FIG. 3), or 100 nM rabbit vWF A1 domain (SEQ ID NO 6, FIG. 3). The data is presented in the third and fourth columns of Table 4 below as the ratio of the fraction of the aptamer bound to the nitrocellulose in the presence of the target protein to the fraction of aptamer bound in the absence of the target protein.
(§2) When a significant positive ratio of binding of RNA in the presence of human or rabbit vWF A1 domain (SEQ ID NOS 4 and 6, respectively) versus in the absence of protein was seen, the pools were cloned using the TOPO TA cloning kit (Invitrogen Cat. #45-0641, Carlsbad, Calif.) according to the manufacturer's instructions. Round 9 and 12 pool templates were cloned and sequenced (185 total sequences), producing 78 unique clones within 3 sequence families. All unique clones were transcribed, desalted, 5-^32P end-labeled, and assayed in a 3-point dot blot screen (no protein target control, 100 nM human vWF A1 domain (SEQ ID NO 5), or 100 nM rabbit vWF A1 domain (SEQ ID NO 6). The data are presented in the third and fourth columns of Table 9 below as the ratio of the fraction of the aptamer bound to the nitrocellulose in the presence of the target protein to the fraction of aptamer bound in the absence of the target protein. Of the three sequence families, members of Family #1 and #2 and two individual, non-family aptamers, bound to both human vWF domain A1 (SEQ ID NO 5) and rabbit vWF domain A1 (SEQ ID NO 6).
(§3) All unique clones were assayed in a 3-point dot blot screen (no protein target control, 100 nM human vWF A1 domain (SEQ ID NO 5), or 100 nM rabbit vWF A1 domain (SEQ ID NO 6). The data are presented in the third and fourth columns of Table 14 below as the ratio of the fraction of the aptamer bound to the nitrocellulose in the presence of the target protein to the fraction of aptamer bound in the absence of the target protein.
When a significant positive ratio of binding of DNA in the presence of human or rabbit vWF A1 domain versus in the absence of protein was seen, the pools were cloned using the TOPO TA cloning kit (Invitrogen Cat. #45-0641, Carlsbad, Calif.) according to the manufacturer's instructions. Round 7 and 11 pool templates were cloned and sequenced (218 total sequences), producing 146 unique clones within 12 sequence families of which sequences from six families show vWF target binding activity. All unique clones were assayed twice in a 3-point dot blot screen (no protein target control, 20 nM full length human vWF (Calbiochem Cat. #681300, La Jolla, Calif.), or 20 nM rabbit vWF A1 domain. The data is presented in the third and fourth columns of Table 17 below as the ratio of the fraction of the aptamer bound to the nitrocellulose in the presence of the target protein to the fraction of aptamer bound in the absence of the target protein.

[4] = biological target: human vWF A1 domain (SEQ ID NO 5) (Homo sapiens, UniProt P04275, T1381A); experiment: 3-point dot blot screen, human vWF A1 domain; assay type: binding; settings: DNA SELEX 1 aptamers; 100 nM human vWF A1 domain; ratio of fraction bound with target to without
Sequence of human vWF A1 domain (SEQ ID NO 5) (P04275 with tags, fused parts or gaps T1381A): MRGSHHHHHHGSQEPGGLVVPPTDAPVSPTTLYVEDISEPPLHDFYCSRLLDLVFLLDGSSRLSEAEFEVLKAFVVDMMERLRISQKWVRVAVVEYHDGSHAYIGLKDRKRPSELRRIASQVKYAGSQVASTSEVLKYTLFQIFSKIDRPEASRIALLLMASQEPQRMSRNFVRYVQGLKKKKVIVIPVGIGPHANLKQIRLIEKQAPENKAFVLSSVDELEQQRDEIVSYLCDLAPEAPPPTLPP
Description: as §1, §2, §3

[5] = read-out: Inhibition of full length hVWF binding in FACS assay, Average IC50
[6] = units in the cell: lower bound pM, upper bound nM, read-out: Inhibition of full length hVWF binding in FACS assay, IC50 range

Row | Molecule | IC50 [1, 5] [pM] | Screen- Rabbit/No Protein [3] | Screen- Human/No Protein [4] | other results
1 | GGACCACCCUCGCAAGCAUUGAGAAAUGACUUGUGCCGCUGGUCC (rGrGrAfCfCrAfCfCfCfUfCrGfCrArArGfCrAfUfUrGrArGrArArAfUrGrAfCfUfUrGfUrGfCfCrGfCfUrGrGfUfCfC) [SEQ ID NO 172, minimized rRfY aptamer] | 4300 | – | – | –
2 | GGACCACCCUCGCAAGCAUUUUAAGAAUGACUUGUGCCGCUGGUCC (rGrGrAfCfCrAfCfCfCfUfCrGfCrArArGfCrAfUfUfUfUrArArGrArAfUrGrAfCfUfUrGfUrGfCfCrGfCfUrGrGfUfCfC) [SEQ ID NO 169, minimized rRfY aptamer] | 6900 | – | – | IC50 [1, 6]: 103 to 17000 pM
3 | GGAGCCACACGACATTGGCGAGAGCCACGCATGGCTCC (chemistry not given here) [SEQ ID NO 194, minimized rRdY aptamer] | – | – | – | Inhibition of full length hVWF binding in FACS assay, IC50 range [1]: no activity
4 | GGAGCCACACGACATTGGCGGGTTGTAATTACCACGCATGGCTCC (rGrGrArGdCdCrAdCrAdCrGrAdCrAdTdTrGrGdCrGrGrGdTdTrGdTrArAdTdTrAdCdCrAdCrGdCrAdTrGrGdCdTdCdC) [SEQ ID NO 189, minimized rRdY aptamer] | 1100 | – | – | Kd [2]: 1 nM; IC50 [1, 6]: 564 to 1600 pM
5 | GGAGCCACACGAGAGTGGCGGGTTGTAATTACCACGCATGGCTCC (chemistry not given here) [SEQ ID NO 196, minimized rRdY aptamer] | – | – | – | Inhibition of full length hVWF binding in FACS assay, IC50 range [1]: no activity
6 | GGAGCGCACTCAGCCACACGACATTGGCGGGTTGTAATTACCACGCATGGCTG (chemistry not given here) [SEQ ID NO 186, minimized rRdY aptamer] | 1300 | – | – | IC50 [1, 6]: 971 to 2200 pM
7 | GGAGCGCACTCAGCCACGGGGTGGGTAGACGGCGGGTATGTGGCT (chemistry not given here) [SEQ ID NO 177, minimized rRdY aptamer] | 3000 | – | – | –
8 | GGAGCGCACUCAGCCACCCUCGCAAGCAUUUUAAGAAUGACUUGUGCCGCUGGCU G (rGrGrArGfCrGfCrAfCfUfCrArGfCfCrAfCfCfCfUfCrGfCrArArGfCrAfUfUfUfUrArArGrArAfUrGrAfCfUfUrGfUrGfCfCrGfCfUrGrGfCfUrG) [SEQ ID NO 165, minimized rRfY aptamer] | 6400 | – | – | IC50 [1, 6]: 562 to 14400 pM
9 | GGAGCTCCAGTGTTTTATCTAATAACCGTGCGGTGCCTCCGTGAGCTCC (chemistry not given here) [SEQ ID NO 209, minimized DNA aptamer] | – | – | – | Inhibition of full length hVWF binding in FACS assay, IC50 range [1]: no activity
10 | GGAGCTGCGGTTTGGTCGACGTCAGCTCC (DNA, backbone not given here) [SEQ ID NO 210, minimized DNA aptamer] | – | – | – | Inhibition of full length hVWF binding in FACS assay, IC50 range [1]: no activity
11 | GGTAGCGACTCTGTGGAGCTGCGGTTTGG (DNA, backbone not given here) [SEQ ID NO 211, minimized DNA aptamer] | – | – | – | Inhibition of full length hVWF binding in FACS assay, IC50 range [1]: no activity
12 | B1 | 46000 | – | – | –
13 | B2 | – | 2.00 | 1.89 | –
14 | B3 | – | 1.82 | 1.69 | –
15 | B4 | – | 1.46 | 1.49 | –
16 | B5 | – | 1.27 | 1.27 | –
17 | B6 | – | 1.76 | 1.92 | –
18 | B7 | – | 1.41 | 1.66 | –
19 | B8 | – | 2.10 | 2.28 | –
20 | B9 | – | 1.55 | 1.94 | –
